Target: HIV-1 envelop trimer (BG505 DS-SOSIP) (HIV-1 group M subtype A, isolate BG505, UniProt Q2N0S6, stabilised)

B1: VHH9 row 4 (VHH9 group, Nb10-Nb13) (VHH)
VHH: QVKLEESGGGSVQAGGSLRLSCTAPGFTSNSCGMAWYRQAPGKEREFVSSISTDGTTSYADSVKGRFTISKDKAKDTVYLQMNSLKPEDTAMYSCKTYGPYCYFDVWGAGTTVTVSA
binding result: binds

From paper doi:10.1101/2021.03.04.433768 (bioRxiv, 2021)
